For assay [1], the target named is IFNα2a (human) (UniProt P01563). Description: cell-based or functional assay.
The target of assay [2] is human leukocyte IFN. Kind of assay: cell-based or functional assay.

Chain of MEDI-545 (VH): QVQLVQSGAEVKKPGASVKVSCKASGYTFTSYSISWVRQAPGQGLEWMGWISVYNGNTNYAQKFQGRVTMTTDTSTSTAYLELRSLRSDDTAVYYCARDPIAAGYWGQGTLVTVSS
Chain of MEDI-545 (VL): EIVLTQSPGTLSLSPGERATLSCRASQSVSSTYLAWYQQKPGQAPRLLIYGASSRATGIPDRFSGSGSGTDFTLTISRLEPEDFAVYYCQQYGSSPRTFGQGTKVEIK

Regarding R347 (antibody), in assay [1], the HERC5 gene expression (Average), 107 IFN + R347 (107 IFN alone 41.12; 107 VEH 1.00) turned out to be 55; the HERC5 gene expression (Average), 163 IFN + R3437 (163 IFN alone 75.81; 163 VEH 1.05) came out at 95.4; the HERC5 gene expression (Average), 175 IFN + R347 (175 IFN alone 74.58; 175 VEH 1.19) was 98.2; the OAS1 gene expression (Average), 107 IFN + R347 (107 IFN alone 15.11; 107 VEH 1.00) was determined as 17.8. In assay [1], the OAS1 gene expression (Average), 163 IFN + R3437 (163 IFN alone 14.19; 163 VEH 0.77) came to 22.4; the OAS1 gene expression (Average), 175 IFN + R347 (175 IFN alone 22.09; 175 VEH 1.62) was found to be 15.2; the OAS3 gene expression (Average), 107 IFN + R347 (107 IFN alone 49.04; 107 VEH 1.00) is 76.9; the OAS3 gene expression (Average), 163 IFN + R3437 (163 IFN alone 42.01; 163 VEH 0.49) was found to be 52.6. In assay [1], the OAS3 gene expression (Average), 175 IFN + R347 (175 IFN alone 37.87; 175 VEH 1.27) amounted to 34.9; the RSAD2 gene expression (Average), 107 IFN + R347 (107 IFN alone 109.64; 107 VEH 1.00) came to 107; the RSAD2 gene expression (Average), 163 IFN + R3437 (163 IFN alone 71.47; 163 VEH 0.56) worked out at 115; the RSAD2 gene expression (Average), 175 IFN + R347 (175 IFN alone 126.27; 175 VEH 1.88) came out at 91.
MEDI-545 (antibody) had a neutralization of ISG15, USP18 and IFIT2 overexpression in keratinocytes stimulated with 150 I.U./mL leukocyte IFN in assay [2] of 70 to 100%. Besides, in assay [1], the HERC5 gene expression (Average), 107 IFN + 545 (107 IFN alone 41.12; 107 VEH 1.00) is 6.29; the HERC5 gene expression (Average), 163 IFN + 545 (163 IFN alone 75.81; 163 VEH 1.05) worked out at 7.83; the HERC5 gene expression (Average), 175 IFN + 545 (175 IFN alone 74.58; 175 VEH 1.19) was found to be 6.89; the IFIT1 gene expression, Average (TAQMAN, whole blood + 100 IU IFNα2a + MEDI-545; donor 107; IFN alone 80.21) (relative expression) was 13.1. In addition, in assay [1], the IFIT1 gene expression, Average (TAQMAN, whole blood + 100 IU IFNα2a + MEDI-545; donor 163; IFN alone 51.65) (relative expression) stood at 7.6; the IFIT1 gene expression, Average (TAQMAN, whole blood + 100 IU IFNα2a + MEDI-545; donor 175; IFN alone 82.98) (relative expression) came to 8.4; the IFIT3 gene expression, Average (TAQMAN, whole blood + 100 IU IFNα2a + MEDI-545; donor 107; IFN alone 38.43) (relative expression) was found to be 6.78; the IFIT3 gene expression, Average (TAQMAN, whole blood + 100 IU IFNα2a + MEDI-545; donor 163; IFN alone 25.94) (relative expression) stood at 4.58. Also, in assay [1], the IFIT3 gene expression, Average (TAQMAN, whole blood + 100 IU IFNα2a + MEDI-545; donor 175; IFN alone 35.02) (relative expression) stood at 5.28; the IL6ST gene expression, Average (TAQMAN, whole blood + 100 IU IFNα2a + MEDI-545; donor 107; IFN alone 3.54) (relative expression) was 2.62; the IL6ST gene expression, Average (TAQMAN, whole blood + 100 IU IFNα2a + MEDI-545; donor 163; IFN alone 7.69) (relative expression) amounted to 4.18; the IL6ST gene expression, Average (TAQMAN, whole blood + 100 IU IFNα2a + MEDI-545; donor 175; IFN alone 7.62) (relative expression) was determined as 2.95. In addition, in assay [1], the IRF7 gene expression, Average (TAQMAN, whole blood + 100 IU IFNα2a + MEDI-545; donor 107; IFN alone 18.53) (relative expression) was 3.42; the IRF7 gene expression, Average (TAQMAN, whole blood + 100 IU IFNα2a + MEDI-545; donor 163; IFN alone 17.16) (relative expression) amounted to 2.92; the IRF7 gene expression, Average (TAQMAN, whole blood + 100 IU IFNα2a + MEDI-545; donor 175; IFN alone 24.65) (relative expression) amounted to 2.43; the LY6E gene expression, Average (TAQMAN, whole blood + 100 IU IFNα2a + MEDI-545; donor 107; IFN alone 19.09) (relative expression) was 3.5. In assay [1], the LY6E gene expression, Average (TAQMAN, whole blood + 100 IU IFNα2a + MEDI-545; donor 163; IFN alone 13.52) (relative expression) was 4.8; the LY6E gene expression, Average (TAQMAN, whole blood + 100 IU IFNα2a + MEDI-545; donor 175; IFN alone 19.32) (relative expression) turned out to be 3.74; the MARCKS gene expression, Average (TAQMAN, whole blood + 100 IU IFNα2a + MEDI-545; donor 163; IFN alone 2.59) (relative expression) worked out at 1.55; the MARCKS gene expression, Average (TAQMAN, whole blood + 100 IU IFNα2a + MEDI-545; donor 175; IFN alone 2.59) (relative expression) is 0.55. In assay [1], the OAS1 gene expression (Average), 107 IFN + 545 (107 IFN alone 15.11; 107 VEH 1.00) turned out to be 3.45; the OAS1 gene expression (Average), 163 IFN + 545 (163 IFN alone 14.19; 163 VEH 0.77) turned out to be 3.05; the OAS1 gene expression (Average), 175 IFN + 545 (175 IFN alone 22.09; 175 VEH 1.62) is 4.04; the OAS3 gene expression (Average), 107 IFN + 545 (107 IFN alone 49.04; 107 VEH 1.00) was 7.03. Moreover, in assay [1], the OAS3 gene expression (Average), 163 IFN + 545 (163 IFN alone 42.01; 163 VEH 0.49) was found to be 14.6; the OAS3 gene expression (Average), 175 IFN + 545 (175 IFN alone 37.87; 175 VEH 1.27) was 3.92; the RAB8B gene expression, Average (TAQMAN, whole blood + 100 IU IFNα2a + MEDI-545; donor 163; IFN alone 2.20) (relative expression) was 1.18; the RAB8B gene expression, Average (TAQMAN, whole blood + 100 IU IFNα2a + MEDI-545; donor 175; IFN alone 2.63) (relative expression) worked out at 1.15. For the same substance, in assay [1], the RSAD2 gene expression (Average), 107 IFN + 545 (107 IFN alone 109.64; 107 VEH 1.00) was 9.88; the RSAD2 gene expression (Average), 163 IFN + 545 (163 IFN alone 71.47; 163 VEH 0.56) turned out to be 4.39; the RSAD2 gene expression (Average), 175 IFN + 545 (175 IFN alone 126.27; 175 VEH 1.88) stood at 8.43.

Source of the values: US20150132313A1.
